Experimental data reported in PMC9947658, “Escherichia coli CspA stimulates translation in the cold of its own mRNA by promoting ribosome progression”.

Experiments:
[1] = molecular target: Escherichia coli 30S ribosomal subunits (E. coli); assay: ITC; control experiment: IF1 and 30S subunits, at low temperature, under comparable conditions; ITC buffer
CspA [2] = molecular target: T1, CspA (Escherichia coli, UniProt P0A9X9 1-70); assay: tryptophan fluorescence quenching; 20°C; Trp fluorescence: 1 uM CspA, Buffer H, 20°C; EMSA: Buffer O, 15 or 37°C, 10% native PAGE at 4°C; Fe-EDTA footprinting: Buffer N, 15°C; UV cross-linking at 15°C; buffer compositions not given in the material; conditions: protein: recombinant; tags: His-tag (pETM11) removed with TEV; single strand
CspA [3] = molecular target: T1, CspA; assay: tryptophan fluorescence quenching; 20°C; text calls the G6A variant oligo 6, table and Fig S10 oligo 5; Trp fluorescence: 1 uM CspA, Buffer H, 20°C; EMSA: Buffer O, 15 or 37°C, 10% native PAGE at 4°C; Fe-EDTA footprinting: Buffer N, 15°C; UV cross-linking at 15°C; buffer compositions not given in the material; conditions: protein: recombinant; tags: His-tag (pETM11) removed with TEV; single strand

T1 sequence (P0A9X9 whole entry): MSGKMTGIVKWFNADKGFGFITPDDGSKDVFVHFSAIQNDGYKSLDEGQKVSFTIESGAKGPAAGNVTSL

Binder | Kd (CspA [2]) [µM] | also measured
initiation factor IF1 (natural protein) MAKEDNIEMQGTVLETLPNTMFRVELENGHVVTAHISGKMRKNYIRILTGDKVTVELTPYDLSKGRIVFRSR |  | Kd [1]: 0.806 µM
AACUGGUA (ssRNA) [Oligo 1] | 1.24 ± 0.08 | 
AAAUGGUA (ssRNA) [Oligo 2] | 2.3 ± 0.13 | 
AACAGGUA (ssRNA) [Oligo 3] | 1.24 ± 0.05 | 
AACUAGUA (ssRNA) [Oligo 4] | 1.03 ± 0.06 | 
AACUGAUA (ssRNA) [Oligo 5] |  | Kd (CspA [3]): 4.86 ± 0.24 µM
AACUGGAA (ssRNA) [Oligo 6] | 2.08 ± 0.14 | 
AAAAAAAAA (ssRNA) [Oligo 7 (poly-A)] | 5.13 ± 1.15 | 
